Molecular target: GST-hnRNP E1 (UniProt Q15365 1-356)
Test: EMSA; 25 mM Tris-HCl pH 7.6, 1 mM EDTA, 2% glycerol, 10 mM beta-ME, 50 ug/ml BSA, with or without 1.5 ng denatured E. coli DNA; 20 fmol probe in 50 ul; RT 15 min; 8-10% PAGE in 1x TBE
Details: protein: recombinant; tags: GST; label: 5'-32P

GST-hnRNP E1, sequence (Q15365 whole entry): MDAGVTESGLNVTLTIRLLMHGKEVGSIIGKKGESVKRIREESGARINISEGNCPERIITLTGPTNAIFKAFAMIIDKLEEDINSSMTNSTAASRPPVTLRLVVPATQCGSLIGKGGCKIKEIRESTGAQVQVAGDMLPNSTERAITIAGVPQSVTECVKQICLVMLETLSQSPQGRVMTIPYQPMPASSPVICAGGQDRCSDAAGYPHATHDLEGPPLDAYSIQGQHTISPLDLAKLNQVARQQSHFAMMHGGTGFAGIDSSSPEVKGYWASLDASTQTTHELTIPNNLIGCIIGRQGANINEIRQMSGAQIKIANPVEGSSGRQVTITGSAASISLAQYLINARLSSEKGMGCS

AAUUGCUACCCAAUGCCUGGCCCAAGGGCAUUCCCAAAGCUUA (ssRNA) [BAT RNA consensus (43 nt)]
binding signal: 11 fold molar excess protein for 50% shift

— PMC8321654, “Heterogeneous nuclear ribonucleoprotein E1 binds polycytosine DNA and monitors genome integrity”
